The supplement of paper PMC7125110
± gives the standard error. Variants at the floor of the assay were thinned out.

B1: glmS ribozyme (parent)
chain: AUAAAAGCGCCAGAACUACAGAAAUGUAGUUGACGAGGAGGAGGUUUAUCGAAUUUUCGGCGGAUGCCUCCAAA

Tests used:
Details in all cases: with glucosamine-6-phosphate
[1] = variants of: B1; assay: self-cleavage kobs at 40 uM GlcN6P; higher = faster cleavage; RNA array
In short: (§1)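 Weighted Michaelis–Menten fits across concentrations supplied kcat and KM, based on kobs from one- or two-exponential decay fits to normalised per-tile medians. The data came from barcoded ribozyme variants transcribed in situ by E. coli RNA polymerase on sequenced MiSeq chips and tracked at 37 °C by a hybridised Cy3 probe. Glucosamine-6-phosphate (40 μM to 10 mM) in HEPES/KCl/Mg(OAc)2 buffer was flowed in.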

[2] = variants of: B1; assay: self-cleavage kobs at 10000 uM GlcN6P; higher = faster cleavage; RNA array
In short: as §1

[3] = variants of: B1; assay: self-cleavage kobs at 640 uM GlcN6P; higher = faster cleavage; RNA array
In short: as §1

[4] = variants of: B1; assay: self-cleavage kobs at 160 uM GlcN6P; higher = faster cleavage; RNA array
In short: as §1

[5] = variants of: B1; assay: self-cleavage kobs at 2500 uM GlcN6P; higher = faster cleavage; RNA array
In short: as §1

Variant	self-cleavage kobs at 40 uM GlcN6P [1] [s⁻¹]	self-cleavage kobs at 10000 uM GlcN6P [2] [s⁻¹]	self-cleavage kobs at 640 uM GlcN6P [3] [s⁻¹]	self-cleavage kobs at 160 uM GlcN6P [4] [s⁻¹]	self-cleavage kobs at 2500 uM GlcN6P [5] [s⁻¹]
C8A C34U U47C C67U	< 1e-05	< 1e-05	–	–	–
C11A A33G G43U G44A U54C	< 1e-05	< 1e-05	< 1e-05	–	–
G29U G43A G63A	< 1e-05	–	–	–	–
A6G A12C C71A	< 1e-05	–	–	–	–
G32U A36G G41C A52U C67A	< 1e-05	–	–	–	–
C34G U65C	< 1e-05	< 1e-05	< 1e-05	–	–
G9C G40A C50A	< 1e-05	< 1e-05	–	–	–
C8G C67A	< 1e-05	< 1e-05	< 1e-05	< 1e-05	< 1e-05
G38A A52U C71U	< 1e-05	< 1e-05	–	–	–
A53G G66A C67A	0.000154 ± 2.9e-05	0.0038 ± 0.00083	–	–	0.0011 ± 0.0002
G44A G63U	< 1e-05	< 1e-05	< 1e-05	< 1e-05	< 1e-05
A6G C10G G13U C16G U54G U57G	< 1e-05	< 1e-05	–	–	–
A6G A12G U31A U54A C71A	< 1e-05	–	< 1e-05	< 1e-05	< 1e-05
A42C C68G	< 1e-05	–	< 1e-05	< 1e-05	–
A6C G35U A36C	< 1e-05	< 1e-05	–	–	< 1e-05
G51C U57C C70G	< 1e-05	–	–	–	–
C11A A12C G38U U69A	0.000405 ± 0.00012	4.3e-05 ± 2e-05	–	–	–
A14U G38U G63U	< 1e-05	< 1e-05	–	–	–
A15G U49G	4.65e-05 ± 2e-05	0.00148 ± 0.00024	0.000228 ± 4.3e-05	0.000118 ± 3.1e-05	0.000499 ± 0.0001
G35A U45C	< 1e-05	< 1e-05	< 1e-05	–	< 1e-05
A36C A42U	< 1e-05	–	–	–	–
A6U C8U	< 1e-05	< 1e-05	< 1e-05	< 1e-05	< 1e-05
G60A A64C	< 1e-05	–	< 1e-05	–	–
A33G G44C	< 1e-05	< 1e-05	< 1e-05	< 1e-05	< 1e-05

Variant	self-cleavage kobs at 40 uM GlcN6P [1] [s⁻¹]	self-cleavage kobs at 10000 uM GlcN6P [2] [s⁻¹]	self-cleavage kobs at 640 uM GlcN6P [3] [s⁻¹]	self-cleavage kobs at 160 uM GlcN6P [4] [s⁻¹]	self-cleavage kobs at 2500 uM GlcN6P [5] [s⁻¹]
A12C G13A U65C C68U	< 1e-05	–	–	–	–
A52C U56C	< 1e-05	–	–	–	< 1e-05
G41U U57G	< 1e-05	–	< 1e-05	< 1e-05	–
C16G C34A G38C U65C	< 1e-05	–	–	–	–
A6G G35U	< 1e-05	< 1e-05	< 1e-05	< 1e-05	< 1e-05
C10A G43A	< 1e-05	–	–	–	–
G29U U55G	4.62e-05 ± 1.1e-05	0.00239 ± 0.0003	0.000282 ± 5.3e-05	–	0.00177 ± 0.00029
C8U A14G	< 1e-05	–	–	< 1e-05	< 1e-05
U30G U47C C70G	< 1e-05	7.72e-05 ± 2.2e-05	5.55e-05 ± 2e-05	–	0.000116 ± 2.6e-05
A6G C10U G43C	< 1e-05	–	< 1e-05	–	–
C8G A15C	< 1e-05	< 1e-05	< 1e-05	< 1e-05	< 1e-05
C11A A39C G62C A64U C67G	< 1e-05	–	–	–	–
G40C G43A	< 1e-05	< 1e-05	–	–	–
A12U G41A G44C U55G	< 1e-05	< 1e-05	–	–	–
A6G A52U	< 1e-05	–	< 1e-05	< 1e-05	–
C11G U31G A53C	< 1e-05	–	–	–	–
C10A G37C C68U	< 1e-05	–	–	–	–
G32U A42U C58U	< 1e-05	3.73e-05 ± 1.3e-05	–	–	–
A15G G29A G63U	< 1e-05	< 1e-05	–	–	–
G32U G63U C71A	< 1e-05	< 1e-05	< 1e-05	–	–
A52C C71G	< 1e-05	–	< 1e-05	–	< 1e-05
G7C A33G A53U A64G	< 1e-05	–	< 1e-05	–	–
C8G G32C G62U	< 1e-05	< 1e-05	–	–	–
G7U C16U G29C U54A	< 1e-05	–	–	–	< 1e-05

Variant	self-cleavage kobs at 40 uM GlcN6P [1] [s⁻¹]	self-cleavage kobs at 10000 uM GlcN6P [2] [s⁻¹]	self-cleavage kobs at 640 uM GlcN6P [3] [s⁻¹]	self-cleavage kobs at 160 uM GlcN6P [4] [s⁻¹]	self-cleavage kobs at 2500 uM GlcN6P [5] [s⁻¹]
G37A U54A	7.84e-05 ± 1.8e-05	0.00478 ± 0.00082	–	–	–
U55G C61A G66C C70A	0.000162 ± 4.4e-05	–	0.000153 ± 3.1e-05	0.000108 ± 2.1e-05	8.3e-05 ± 1.7e-05
A48C C67U C71A	< 1e-05	< 1e-05	–	–	–
G41U G43A	< 1e-05	< 1e-05	< 1e-05	–	< 1e-05
G13C G29U G32A U54G U65C C68G U69G	0.00014 ± 4.1e-05	0.000151 ± 3.1e-05	0.000623 ± 0.00016	0.000198 ± 5.6e-05	9.24e-05 ± 2.8e-05
G13A G41C	< 1e-05	–	< 1e-05	–	–
U31C G32C G35A G59U G66U C71U	< 1e-05	< 1e-05	–	–	< 1e-05
A33C G43A U47G	< 1e-05	–	< 1e-05	< 1e-05	< 1e-05
A14G G41A	0.000282 ± 3.2e-05	0.00645 ± 0.0016	0.00125 ± 0.00022	0.000481 ± 7.9e-05	0.00232 ± 0.00052
C34G G63C	< 1e-05	< 1e-05	< 1e-05	< 1e-05	–
A52U G63C A64U	< 1e-05	–	–	–	< 1e-05
A14C G59C	< 1e-05	< 1e-05	< 1e-05	< 1e-05	–
C8A U49A	< 1e-05	–	< 1e-05	–	–
C10U G29U U56G	< 1e-05	< 1e-05	–	–	–
G41U U49A	< 1e-05	< 1e-05	< 1e-05	–	–
G38A C58U U69C	< 1e-05	< 1e-05	–	–	–
G9C G13U G41U G63U	< 1e-05	< 1e-05	–	–	–
C34G G43C	< 1e-05	–	< 1e-05	< 1e-05	< 1e-05
A28C C34A G62C	< 1e-05	< 1e-05	–	–	–
C11G G66U	< 1e-05	–	–	–	< 1e-05
U30C C50A A53G U69C C70G	5.5e-05 ± 1.9e-05	–	–	–	–
A6U G38A G40U G51C	< 1e-05	–	–	–	–
G9A C71G	< 1e-05	< 1e-05	< 1e-05	< 1e-05	< 1e-05
A33G G40U U49C	< 1e-05	< 1e-05	–	–	–

Variant	self-cleavage kobs at 40 uM GlcN6P [1] [s⁻¹]	self-cleavage kobs at 10000 uM GlcN6P [2] [s⁻¹]	self-cleavage kobs at 640 uM GlcN6P [3] [s⁻¹]	self-cleavage kobs at 160 uM GlcN6P [4] [s⁻¹]	self-cleavage kobs at 2500 uM GlcN6P [5] [s⁻¹]
G60U G62A C70U	< 1e-05	< 1e-05	–	–	–
C8U U30G	< 1e-05	< 1e-05	< 1e-05	< 1e-05	–
C34A G43C A48G	< 1e-05	–	–	–	–
C8G A36G	< 1e-05	< 1e-05	< 1e-05	< 1e-05	–
C11G G41C	< 1e-05	–	< 1e-05	< 1e-05	< 1e-05
C8A C67U	< 1e-05	< 1e-05	< 1e-05	< 1e-05	–
C16U G60C C67A	< 1e-05	–	–	–	–
G38U A42C A53U	< 1e-05	–	–	–	–
A12C G40A C58U	< 1e-05	–	–	< 1e-05	–
C10A A15U	< 1e-05	–	< 1e-05	–	–
C8U G9A C16U C50U A52U	< 1e-05	< 1e-05	–	–	< 1e-05
G9C G37U	< 1e-05	–	< 1e-05	< 1e-05	< 1e-05
U30G U47A	0.000162 ± 3.5e-05	0.00566 ± 0.0013	–	–	–
C58A G59U C68U	< 1e-05	–	–	–	–
A6U A12G C16U G38A U54A C68A	8.86e-05 ± 3.6e-05	8.53e-05 ± 1.8e-05	0.000335 ± 0.0001	–	0.000395 ± 0.00011
G43U C70G	< 1e-05	< 1e-05	< 1e-05	< 1e-05	< 1e-05
A33U C61U C70G	< 1e-05	–	–	–	–
G38U A53C	< 1e-05	–	< 1e-05	< 1e-05	< 1e-05
U55G C71U	0.00104 ± 0.00015	0.034 ± 0.0078	0.00353 ± 0.0005	0.00128 ± 0.00022	0.0044 ± 0.00066
A6G G32U C34U	< 1e-05	< 1e-05	< 1e-05	–	< 1e-05
A48U G60A	< 1e-05	< 1e-05	< 1e-05	< 1e-05	< 1e-05
G43C A53G	< 1e-05	–	< 1e-05	< 1e-05	–
